From publication PMC6160142, “Structural and biochemical characterization of the Cutibacterium acnes exo-β-1,4-mannosidase that targets the N-glycan core of host glycoproteins” (PLoS ONE, 2018)

Legend:
[1] = tested on: O=[N+]([O-])c1ccc(O[C@@H]2O[C@H](CO)[C@@H](O)[C@H](O)[C@@H]2O)cc1; assay: purified protein; details: stated pHopt and Topt (pH 6.5, 60 °C; methods for pNP sugars give 50 mM sodium phosphate pH 6.0, 50 °C, 10 min); 0.5 to 20 mM substrate
[2] = biological target: CaMan5_18, exo-β-1,4-mannosidase (GH5 subfamily 18) from Cutibacterium acnes strain 266 (Cutibacterium acnes strain 266); assay: SEC; HiLoad 16/60 Superdex 200 prep grade in 25 mM K2HPO4 pH 7.2, 150 mM NaCl, calibrated with five protein standards

Row | Substance | Km [1] [mM] | kcat [1] [s⁻¹] | kcat/Km [1] [M⁻¹ s⁻¹] | stoichiometry N [2]
1 | CaMan5_18 (Cutibacterium acnes subsp. acnes) | 10.4 | 7.8 | 750 | 
2 | CaMan5_18, exo-β-1,4-mannosidase (GH5 subfamily 18) from Cutibacterium acnes strain 266 (enzyme) |  |  |  | 2
